Data reported in patent publication US20230070261A1 (UCB, published 2023).
Numbering of substitutions follows the chain as printed. Numbers in names are those of the source. Where “and” joins values, the source holds several entries; their conditions need not be identical. Equal entries are not always repeated. Where two headings read alike, the source gives them in different places. Each block holds one molecule with its values, some of them ahead of it.

Columns and labels:
[1] = molecular target: T1, Active human KLK5 (human, UniProt Q9Y337 67-293)
[2] = molecular target: T1, Active human KLK5; assay: cell-based or functional assay
[3] = molecular target: T1, Active human KLK5; assay: SPR (Biacore T200, 25 C); IgG captured on anti-human IgG Fc, human KLK5 as analyte; 1:1 model; duplicate sample
Experimental: (§1) The kinetics of these grafts for binding to human KLK5 were assessed by surface plasmon resonance (Biacore T200) at 25° C.
(§2) A goat anti-human IgG Fc specific antibody (Jackson ImmunoResearch) was immobilised on a CM5 Sensor Chip via amine coupling chemistry to a level of approximately 7000RU. Each analysis cycle consisted of capture of the anti-KLK5 IgG molecules to the anti Fc surface, injection of KLK5 analyte (prepared in house) for 180 s at 30 μl/min followed by 600 s dissociation. At the end of each cycle the surface was regenerated at a flowrate of 10 μL/min using a 60 s injection of 50 mM HCl followed by a 30 s injection of 5 mM NaOH and a final 60 s injection of 50 mM HCl. Human KLK5 was titrated from 20 nM to 0.74 nM (3×3-fold serial dilutions) in HBS-EP+running buffer (GE Healthcare) supplemented with NaCl to a final concentration of 300 mM. Buffer blank injections were included to subtract instrument noise and drift.
(§3) Kinetic parameters were determined using a 1:1 binding model using Biacore T200 Evaluation software.

[4] = molecular target: T1, Active human KLK5; assay: SPR (Biacore T200, 25 C); IgG captured on anti-human IgG Fc, human KLK5 as analyte; 1:1 model
Experimental: as §1, §2, §3

[5] = molecular target: T1, Active human KLK5; assay: SPR; rabbit antibody 10273 captured on anti-rabbit Fc and saturated with 20 nM human KLK5, LEKTI D5 Fab fusion as analyte (KLK5 in complex with 10273); 1:1 model
Experimental: (§4) 20 nM of human KLK5 was then injected until the surface reached saturation. LEKTI D5 Fab fusion protein (generated as described in example 1) was then injected at concentrations between 30 μM and 100 nM. Values from buffer only injections were first subtracted from those obtained with the analytes before fitting to a 1:1 binding kinetic model in Biacore™ evaluation software (GE Life Sciences™)
(§5) As reference, LEKTI D5 Fab fusion protein was immobilised to the chip surface prior to monitoring the interaction with human KLK5.

[6] = molecular target: T1, Active human KLK5; assay: SPR; rabbit antibody 10273 captured on anti-rabbit Fc and saturated with 20 nM human KLK5, LEKTI D5 Fab fusion as analyte (KLK5 in complex with 10273); average value n = 2; human KLK5 already in complex with captured rabbit antibody 10273; LEKTI D5 Fab fusion as analyte; average n = 2
Experimental: as §4, §5

Molecule: Human LEKTI D5 rabbit Fc (Fc fusion)
IC50 (read off the curve) [1]: 200 nM
IC50 (M), inhibition of kallikrein protease activity (fluorogenic peptide substrate) [2]: 1.03e-10 M

B2: 10273gL2-Q1RgH1-D19N (antibody, human IgG4 S228P, kappa, V domains shown)
VH: EVQLVESGGGLVQPGGSLRLSCAVSGFSLSSYGMSWVRQAPGKGLEWIGIISSSGSTYYASWAKGRFTISKDSSKNTVYLQMNSLRAEDTAVYYCARDHIYRYDDYGDYPTYYGMNPWGQGTTVTVSS
VL: AIQLTQSPSSLSASVGDRVTITCRSSQSVYNNNDLAWYQQKPGKAPKLLIYRASTLASGVPSRFSGSGSGTDFTLTISSLQPEDFATYYCLGGYDDDVDTYTFGGGTKVEIKR
modifications: sulphation (+80 Da) of Tyr 9 of CDR-H3, 80% of heavy chain (Table 7)
notes: Humanized graft, hIgG4P
Kd [3]: 0.41 nM and 0.309 nM
koff [3]: 0.000175 s⁻¹ and 0.000133 s⁻¹
kon [3]: 427000 M⁻¹ s⁻¹ and 257000 M⁻¹ s⁻¹

B3: 10273 gL2-Q1RgH1-D19N-Y4F (antibody, human IgG4 S228P, kappa, V domains shown)
VH: B2 VH with Y101F
VL: B2 VL
modifications: sulphation (+80 Da) of Tyr 9 of CDR-H3, 85% of heavy chain (Table 7)
notes: Humanized graft, hIgG4P
Kd [4]: 1.15 nM
koff [4]: 0.000519 s⁻¹
kon [4]: 451000 M⁻¹ s⁻¹

B6: 10273 gL2-Q1RgH1-D19N-T14S (antibody, human IgG4 S228P, kappa, V domains shown)
VH: B2 VH with T111S
VL: B2 VL
modifications: sulphation (+80 Da) of Tyr 9 of CDR-H3, 65% of heavy chain (Table 7)
notes: Humanized graft, hIgG4P
Kd [4]: 0.644 nM
koff [4]: 0.000165 s⁻¹
kon [4]: 257000 M⁻¹ s⁻¹

B11: 10273 gL2-Q1RgH1-D19N-Y15F (antibody, human IgG4 S228P, kappa, V domains shown)
VH: B2 VH with Y112F
VL: B2 VL
modifications: sulphation (+80 Da) of Tyr 9 of CDR-H3, 85% of heavy chain (Table 7)
notes: Humanized graft, hIgG4P
Kd [4]: 0.249 nM
koff [4]: 0.000139 s⁻¹
kon [4]: 558000 M⁻¹ s⁻¹

Results, then the molecule that gave them:

IC50 (read off the curve) [2]: ~50 nM
B1: Rabbit antibody 10273 (antibody, V domains shown)
VH: QSVEESGGRLVTPGTPLTLTCTVSGFSLSSYGMSWVRQAPGKGLEWIGIISSSGSTYYASWAKGRFTISKTSTTVDLKIASPTTEDTATYFCARDHIYRYDDYGDYPTYYGMDPWGPGTLVTVSS
VL: AVVLTQTPSPMSAAVGGTVTISCQSSQSVYNNNDLAWYQQKPGQPPKLLIYRASTLASGVPSRFSGSGSGTQFTLTISGVQCDDAATYYCLGGYDDDVDTYTFGGGTEVVVK

Kd [4]: 6.9 nM
koff [4]: 0.00251 s⁻¹
kon [4]: 364000 M⁻¹ s⁻¹
B4: 10273 gL2-Q1RgH1-D19N-T14V (antibody, human IgG4 S228P, kappa, V domains shown)
VH: B2 VH with T111V
VL: B2 VL
modifications: sulphation (+80 Da) of Tyr 9 of CDR-H3, 75% of heavy chain (Table 7)
notes: Humanized graft, hIgG4P

Kd [4]: 0.319 nM
koff [4]: 0.000138 s⁻¹
kon [4]: 432000 M⁻¹ s⁻¹
B5: 10273 gL2-Q1RgH1-D19N-Y12F (antibody, human IgG4 S228P, kappa, V domains shown)
VH: B2 VH with Y109F
VL: B2 VL
modifications: sulphation (+80 Da) of Tyr 9 of CDR-H3, 75% of heavy chain (Table 7)
notes: Humanized graft, hIgG4P

Kd [4]: 0.164 nM
koff [4]: 8.45e-05 s⁻¹
kon [4]: 514000 M⁻¹ s⁻¹
B7: 10273 gL2gH1 (antibody, human IgG4 S228P, kappa, V domains shown)
VH: B2 VH with N116D
VL: B2 VL with R24Q
modifications: sulphation (+80 Da) of Tyr 9 of CDR-H3, 95% of heavy chain (hIgG4P, Table 7)
notes: Humanized graft

Kd [4]: 5.77 nM
koff [4]: 0.0016 s⁻¹
kon [4]: 277000 M⁻¹ s⁻¹
B8: 10273 gL2-Q1RgH1-D19N-Y16F (antibody, human IgG4 S228P, kappa, V domains shown)
VH: B2 VH with Y113F
VL: B2 VL
modifications: sulphation (+80 Da) of Tyr 9 of CDR-H3, 75% of heavy chain (Table 7)
notes: Humanized graft, hIgG4P

Kd [4]: 0.625 nM
koff [4]: 0.000186 s⁻¹
kon [4]: 298000 M⁻¹ s⁻¹
B9: 10273 gL2-Q1RgH1-D19N-Y6F (antibody, human IgG4 S228P, kappa, V domains shown)
VH: B2 VH with Y103F
VL: B2 VL
modifications: sulphation (+80 Da) of Tyr 9 of CDR-H3, 75% of heavy chain (Table 7)
notes: Humanized graft, hIgG4P

Kd [4]: 0.554 nM
koff [4]: 0.0002 s⁻¹
kon [4]: 362000 M⁻¹ s⁻¹
B10: 10273 gL2-Q1RgH1-D19N-Y9F (antibody, human IgG4 S228P, kappa, V domains shown)
VH: B2 VH with Y106F
VL: B2 VL
notes: Humanized graft, hIgG4P

koff [5]: 0.000565 s⁻¹
kon [5]: 28700 M⁻¹ s⁻¹
Kd [6]: 13.4 nM
B12: LEKTI D5 Fab fusion (other)
heavy: EVQLLESGGGLVQPGGSLRLSCAVSGIDLSNYAINWVRQAPGKGLEWIGIIWASGTTFYATWAKGRFTISRDNSGGGGSGGGGSREIVKLCSQYQNQAKNGILFCTRENDPIRGPDGKMHGNLCSMCQAYFQAENEEKKKAEARARSGGGGGGGGSKNTVYLQMNSLRAEDTAVYYCARTVPGYSTAPYFDLWGQGTLVTVSSASTKGPSVFPLAPSSKSTSGGTAALGCLVKDYFPEPVTVSWNSGALTSGVHTFPAVLQSSGLYSLSSVVTVPSSSLGTQTYICNVNHKPSNTKVDKKVEPKSCHHHHHHHHHH
light: DIQMTQSPSSVSASVGDRVTITCQSSPSVWSNFLSWYQQKPGKAPKLLIYEASKLTSGVPSRFSGSGSGTDFTLTISSLQPEDFATYYCGGGYSSISDTTFGGGTKVEIKRTVAAPSVFIFPPSDEQLKSGTASVVCLLNNFYPREAKVQWKVDNALQSGNSQESVTEQDSKDSTYSLSSTLTLSKADYEKHKVYACEVTHQGLSSPVTKSFNRGEC
notes: also called LEKTI D5 Fab fusion protein; LEKTI D5Fab fusion protein
